# Laboratory results taken from a protein production outcome set (Wang et al. 2014).
# Assay: label from the status in PepcDB records
# 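Also: failed if final PepcDB status was selected cloned or expressed and not failed if soluble or beyond.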
sequence,measurement,value
TVVNDPSCESVVTTPQHSLRDANSPAGLLSIAEETLAEFLSKATGTAVDWVQMPGMKPGPDSVGIFAISQRCNGVAARACGLVSLEPMKIAEILKDRPSWFRDCRSLEVFTMFPAGNGGTIELVYMQTYAPTTLAPARDFWTLRYTTSLDNGSFVVCERSLSGSGAGPNAASASQFVRAEMLSSGYLIRPCDGGGSIIHIVDHLNLEAWSVPDVLRPLYESSKVVAQKMTISALRYIRQLAQESNGEVVYGLGRQPAVLRTFSQRLSRGFNDAVNGFGDDGWSTMHCDGAEDIIVAINSTKHLTNISNSV,protein production,not failed
MTLDPTPALSALRSGDFRTVQKLARRALKLAKGDPGWLNLAAIAESGLGRPKAALPHFQLALKLAPDFHDARRNLAQTLVILGRLDEAERHLQQLTGTNPQDAEAWALLSQAAMGRGDGDAALAAADRYVDLRPGQARGLMLRATLHGRLGDEAAALADLQQAQMAEPDNVDLLIALSLPLARADHPGAAIDVARRAVELAPRHIPARLTLAMRHVEQGDSDAAKAMYHRVLEIAPDQAEALEQLAHLNDAAENQRLAPQVQTALKTAEAGSLDKAQLHFALARIAAQSADDDGLARNLTRANATMARLMPYDAGADTRLSEALMARFAPGADCDGPGDGPAPFYVLGLPRSGTSLTEAVLGAHPVVHPLGERIAPGRLLAPLIDGGLPFDAQARAAFRKGEAASLPALPEGTRFYTDKMPENYRLVGFLLAARGDARVIHLRRDPRDVALSLWQAHLAGSALNYAYDLGAMAHRFNLYARMMAHWRAIFPDRILDLPYEELVADVTRASQRLAEWLGLVWDPEMARPERSTSQILTLSASQLRQPVHTRSVGKWRKHEAMLAPFIAGLDPGLWPELGQSGI,protein production,failed
MNSFWTFLQLIFVILQVTSLALYALLPAPWSDTVLVAMILFSLIIGIVIWWWSRRNALTAPFRQPFLSSDSLQLFEQVFNDLPTRVYWRDPELKLLGGNRAFANDFGIDPESLAGKTDAEIDSLASNDVLLERDRKTFSQQAPSVNAEIELKVSGKSQWVEHSSVPLYDDDHNIIGILGSYYDISGIKSVAEEMEKAKETAERANQSKGEFLANMSHEIRTPINAIVGMANLCLKTELTQKQKRYIKVIDSSSQALLGVINDILDFSKIDAGKLTVERIPFDLQDVLTSLADMFAYRAYDKDLEFIINLPANIPTRLIGDPLRLNQVLVNLISNAIKFTEDGEINVAVNLLDSSRDNVLLRISVTDTGIGMDEEQRANLFKAFTQADTSTTRKYGGTGLGLAISRRLILLMGGDIGVTSAAGQGSTFYIEVELPLQTEQDNSHHQYLLQKLKGVRILAIDDNLSTREMLYEMLRSYQVDVKVCRTAEQALQVFQLSVEDNNPYQLVLVDWRLPGMDGLEFCQKITERYAEDIRPKMTLATGYYAEELSEKAKQAGVNDIISKPFTASTLGRSLTSTLFQRELSDADDADSGDGIPESILRAPILVVEDNEINQQVAREILSSHKFKVDIVENGQLAVEAVHNKNYSLVLMDIQMPVMDGLKAAQTIRADFNYQQLPILAMTANAMSGDEERSLAAGMQGHIAKPIDEQQLIKAIIKWAVPGDYTNNQQPEVPPESKQDEVNKPPVRIPQVKGIEFETALKRLQYNVELYLKLVEQLYETYQGSATKVSDFITRGQHESARRYFHSLKGAAANLGFTQLQSKAADLEQFMAEGNIDKVADQITELEKRLRYAHQAAVDLEAIQQHQS,protein production,failed
MIESVLLLVSGLPGSGKSTLARGMAEALAWPCLDKDDFLEALFDARGIGDAAWRRALSREADSRFLAALQAAPRAVACSWWRHPRGEGGSGTPIGGLARPGRLVLELHCRCPAELAAARFARRVRHPGHLDAQRDPGALSLQLRRAERLGPLGLGQCLILDASVQTDLSGALAWTRDALAAGALADPPRHPLEHHHHHH,protein production,failed
NNDDDGTNKAQEIAGKYEGYSIGNCAMFTDYVMGEKSVATIVPNEDGTINVTYDSGSGEFKLNNIKVTSKTFEGSGQVELSMNDKPAGAKDFTLTGSIDEQQKLTLKVNVPSVMGGLTIEFIQGTLPISYHVSGTYNKEANLSVSVGSTTYPDITDCKVSIKRSSDDTVELTLKGLSNLNSSQTGRAMNLGDFTVTDVKVTSTDNSIFKIEGSINTTDTNNTPITGTLSGTVSNSETNITFTFKPGAMPIDITAMFKGKK,protein production,not failed
MMIIGINGSPRKNGNTIEMLKSALDGAKAQGAETELINLYDYNYKGCVSCFSCKLKGGRSYGKCALKDDLKPILEKIEKADAFILASPIYFGMVTGEMRSFMERLLFQYLVYDKDHSSLFNRKIKTGFIYTMNVPETYLDSVGYNKLFESNEATLKRIFGASEYILSTDTYQFDDYSKYEASMFDVEAKKKRREEVFPEDCKRAYEMGASFVKLEHHHHHH,protein production,failed
SNIRLIATDMDGTLTQQGRFSAALLQTLENLKAAGLPILIVTGRSAGWVSGISSLMPIAGAIGENGGLFYPADSEHPLLLTPIADLTGHRQNLALVFQKLKQKFPQIQESGDNRFRITDWTFDVAGLTLAELQLIGNLCQDMGWGFTYSNVQCHIKPQGQEKAIALLQVLQKYFPDYSPTQVVTVGDSPNDESLFNQRYFPLSVGVANVLKYAHQLQHQPSYVTTTAEGEGFCELCSYIL,protein production,failed
MTGKPLTDYVALGFTALERGDCQEAVNIFRRAQETGPTARSFVGLGLAFHRLGDPPAARWAFAKALDLEPADRDANEWIERIGRPAVPARTSGGRGCRFRAGEDFLQIKENGSWRRFFIKGINLGLGLPGYFPGEYPIHRETYRRWFRLMGELGVNSLRVYAVQSPGFYEALADHNEQGGRLFLFQGIWLELPEDGDFRGRDFLAYAHRQIREAVDSVCGSADFPERPGLPHGSYRRDVSPWTAAYVVGREWESCAVRAFNGRYGRKRGGFAGQFLKVDDGLPFEQWAAEICDYLQSYEHATYDCTHPVTTINWPTLDPLTHPSESTYEEGLIRQGFQVNVDVCNEDEDVETFDPALIASRQGAGFFATYHVYPYYPDFLNNDFLDVENPYREYLKRLRRHHGRQPVVIAEFGVPSSREATHWQRDGWHHGGHDEVSQGKINGYMMEAIRDAGLAGGMLFSWFDEWFKRNWVFLPYELPAERNPFWFNHQDAEQTYGLMAAYPGYPGKVVTLAGRREEWRDASLLQEKRGGAPLHRFGDGRDGARTLVRLSARHDEGFFYLCLETAEPVDFSAAHYLIGLNTCGAKAGETLLPFDTNARSPLGLTFLIHLAGEGASRILVSRFYDKYLNEGLPVRPVPSDTGEWVVMQNITNHRRISKDGTRFYPSRVFSMSGLRFGSLDPQSPRFDSLADWHVSGTLIELRLPWGLLNITDPSSRQVLWMAEQGGKTHTTDGIAAIACSYRPSGEGLAARPTGGRTNLADSLPAGLGSDAVRRYQWERWNHPLYHTYLKRSYYLYRDVLDRMPE,protein production,failed
MQVFIMRHGDAALDAASDSVRPLTTNGCDESRLMANWLKGQKVEIERVLVSPFLRAEQTLEEVGDCLNLPSSAEVLPELTPCGDVGLVSAYLQALTNEGVASVLVISHLPLVGYLVAELCPGETPPMFTTSAIASVTLDESGKGEFNWQMSPCNLKMAKAI,protein production,not failed
MSDFSNELHTQIQYSLIEKLSESERRYRELVDSLREIVFKCDRLGNLNFLNRAWTNTLGYGITDAIGSALSNFIDLDDQYLWSETLEKLQTGVEVCQKLRFYHQTGAIVWLELSAQPQSETEFSGSLINITDVYDELRLRKHAEGLLKQTNEELEARVEQRNIELIQANHDLKVTLDKLKYTQAQLVQTEKMSSLGQLVAGIAHEINNPVNFI,protein production,failed
MQRRLERFDAKLVQSGLDALLVTGQNNIYYLTDFWGTNATVFITKNRRLFLTDSRYTLIAKQSVHGFDIIESKDPLKDIVKFVEVDKLETIGFDNQVSFAYYQALQAIFEGYTLSPQTNFMEELRMIKDEKELATIRKACSISDRAFTDVLDFIKPGQTTELQVANFLDFRMREYGASGISFESIIASGYRSAMPHGVASDKVIQSGETLTMDFGCYYNHYVSDMTRTIHIGETTDEEREIYDIVLRSNRALIDATKAGMTRRDYDKVARDVIVEAGYGDYFTHGIGHGIGLDIHEIPYFGNSDETIEAGMVLTDEPGIYLADKYGVRIEDDIIITENGCEVITLAPKELIVL,protein production,failed
MEELFCIGCGIQIQTEDKEKAGFTPAAALKKGMETGELYCQRCFRLRHYNEITDVHITDDEFLRLLHEVGDSDALVVNVIDIFDFNGSIIPGLSRFISGNDVLLVGNKKDILPKSVKDGKVTQWLTERAHEEGLRPLDVMLTSAQNKYAIKDLIGRINELRNGRDVYVVGVTNVGKSTLINAIIQEITGNKDVITTSRFPGTTLDKIEIPLDDGTFIFDTPGIIHRHQMAHYLSPKELKIVSPKKEIKPKTYQLNPEQTLFLGGLARFDFINGERQGFTAFFDNQLELHRTKLAGADAFYDKHVGTLLTPPDKKELTAFPKLVRHEFTIDQKMDIVFSGLGWIRVNGQKDSKAIVAAWAPEGVAVIVRKAIILEHHHHHH,protein production,not failed
TVGILWVNWDSHVRYANRAAEEMLGYPAGGVIDRPLIDFEPNLHMDRWLNLWKRARASEEGVQSFETQCVRADGSILPADVSLSFLRFRDSEYLVVYLNDV,protein production,failed
MWSVTGALTVAVPPTAAACRTKPFLISSSFPKQTKKLHLSSPSLSLPSSHFSSSFKTAATSIEQQSSVNKGESTKYHFLVANAKFMLDEEEHFQEQLFERLRYFGERELVQDFWLVIEPKFLDNFPKITQRLRRPAVALVSTNGTWITFMKLRLDRVLYDSFEATSLDEALASNPTTLEFDKPKNWVAPYPKYEPGWWDTFLPKVTQESAV,protein production,failed
MSYRTISAEEAVMAIKSGDRVFLHTAAATPLRLIEAMVSRASHLRDVEIVSLHTEGDAPYVRPEFQESFRLNAFFVGRNVRSAVQCGYADAIPIFLSDVPAMFYDGVMPLDVALVHVSPPDRHGYCSLGVSVDATRAAVHTARHVIAQVNPNMPRTHGEGLLHVSKIHSLVEVDDPLPETPRHELTDVERQIGQHIASIVEDGATLQMGIGAIPDATLAALTNHKDLGIHSEMFSDGVVDLVEKGVVNGRCKKTHNEIIVASFLVGTRKLYDFVDDNPLVEMFGSDYVNDTKEIRKNPKVTAINSAIEIDMTGQVCADSIGTRHFSGVGGQMDFIRGAALSPGGKPIIALPATTRKGESRIVTQLKPGAGVVTTRAHVQYVVTEYGIVNLHGKNLRQRAEALATIAHPDFREEILRQAHELYGRKSNCLID,protein production,failed
MEFWESSFIEKQTMWGFEPTESAILTKDFFLEKNVKNILVPGIGYGRNAKVFIDNGINVTGIEISKTAIDLARENGLEDVSMYHGSVNEMPFDNKLYDGIFSHALLHLLNEQEREKFIEDCYNQLKPGGYMVFTTVSKKAPMYGKGKQLDKDYYEIMDGVKMFFYDSESIKKDFNQYRLVQVSEIDEPNKNMANKPSINFLMIKCKKER,protein production,failed
MAGASVAATTLKGDTSLLAGGAIRGAINAFGKDKKLKTQLASSGKLYGKYAKAASKIENLVLGGENISLVVDPP,protein production,failed
MWKRLLIVSAVSAAMSSMALAAPLTVGFSQVGSESGWRAAETNVAKSEAEKRGITLKIADGQQKQENQIKAVRSFVAQGVDAIFIAPVVATGWEPVLKEAKDAEIPVFLLDRSIDVKDKSLYMTTVTADNILEGKLIGDWLVKEVNGKPCNVVELQGTVGASVAIDRKKGFAEAIKNAPNIKIIRSQSGDFTRSKGKEVMESFIKAENNGKNICMVYAHNDDMVIGAIQAIKEAGLKPGKDILTGSIDGVPDIYKAMMDGEANASVELTPNMAGPAFDALEKYKKDGTMPEKLTLTKSTLYLPDTAKEELEKKKNMGY,protein production,failed
MNSFAEKLMVGATAPSASVELPLGDRVRCVLVHEFLSASECEALIEATEQCGFASAGSDYPSSYRDNDRIVADDPAMAGRLFERLKHCASRMPKLGTVIDEDGWRPVGINERLRFCRYRPGTQFRAHQDGVHHRQRQQSRLTFMIYLNDDAFSGGETLFFEGRSAAMSNRDSTLRLRPRKGSLIVFDHTLWHAGALVDAGQKYVMRSDLMYEPQQSLQVDGPFQPGHRGYVWALADLGDRGFASAGRDATIRLWDHEGRCLGQLDGHTQSILGLVDVAPGELVSHSRDRTVRHWSLATGKSTLVGTSDSAVLSSARLGADRLVTGAADGCLTVWNLATGAADRRQAHACWVWAIAPTGDGSFASASEDGTVRLWQPEERDCVQVLDLGRPLRMLASWIDADGSVTLAVGDLDGAVHLLATEPRLALLDCLAAHDGPVRRVRFEARHMLLTCGEDGLVRRWNLPSRQGAIIGSHDNFATDVLPTRAGGWISCGYDGRILVHGDKG,protein production,failed
